From the supplement of paper PMC11136658

System: peptide library, one residue held at a place counted from the Y acceptor
Assay: relative phosphorylation of the sub-library (ratio to the mean residue at this position); higher = residue favoured
Summary of the method: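 Each value expresses phosphorylation relative to the mean randomized residue. Purified recombinant kinases acted for 90 min in 384-well plates on biotinylated Tyr-centred peptide library mixtures, with one residue fixed at one position from −5 to +5, in the presence of 50 μM ATP with γ-32P-ATP. Signals were read by phosphorimaging after capture on streptavidin membranes, then normalized per position to the sum of the 18 randomized residues (16 in the Ser/Thr-free library) and multiplied by that number.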

ERBB2, construct: aa676-end, human (from UniProt P04626)
relative phosphorylation
Settings	at +1	at +2	at +3	at +4	at +5	at -1	at -2	at -3	at -4	at -5
A fixed	0.734	0.684	0.603	0.869	1.51	0.72	0.953	0.764	0.972	0.899
D fixed	0.56	1.04	0.571	0.774	0.521	1.88	1.26	1.48	1.19	1.04
E fixed	0.87	1.19	0.493	0.79	0.575	1.91	1.58	1.88	1.41	0.983
F fixed	1.73	1.58	2.19	1.09	0.958	1.12	0.99	1.27	1.02	1.06
G fixed	0.526	0.504	0.621	0.943	1.06	0.567	1.15	1	1.2	1.12
H fixed	1.18	0.884	0.867	1.02	1.61	0.846	0.936	0.855	0.872	1.04
I fixed	1.5	0.984	1.86	0.764	0.878	1.62	0.932	0.726	0.985	0.909
K fixed	0.462	0.78	0.474	0.991	0.87	0.476	0.674	0.659	0.834	0.992
L fixed	1.53	0.938	1.51	0.8	1.13	1.28	0.973	0.963	0.994	1.06
M fixed	1.17	0.924	1.26	1.23	1.25	0.986	0.837	0.937	0.959	1.01
N fixed	0.59	1.03	0.65	0.843	0.667	1.07	1.08	1.1	1.01	1.14
P fixed	0.395	0.714	0.72	1.18	1	0.617	0.922	0.795	0.924	0.987
Q fixed	0.923	1.02	0.821	0.959	0.679	0.849	1.07	0.876	1.17	1.04
R fixed	0.555	0.837	0.669	1.18	1.28	0.506	0.825	0.824	0.952	1.03
S fixed	0.757	0.928	0.608	0.808	0.849	0.693	0.921	0.989	0.851	0.887
T fixed	0.943	0.874	0.68	0.844	0.944	0.811	0.966	0.948	0.761	0.883
V fixed	2	0.98	1.26	0.807	1.08	1.3	1.03	0.851	0.814	0.915
W fixed	1.59	2.12	2.14	2.11	1.14	0.748	0.91	1.08	1.1	0.991
pThr fixed	1.22	1.36	0.495	0.755	0.514	1.99	1.7	1.7	1.26	1.14
pTyr fixed	6.36	3.29	0.953	0.93	0.82	3.1	1.62	2.2	1.91	1.25
